Source: doi:10.1101/2021.02.10.430713

Target: Listeria monocytogenes c-di-AMP effector protein Lmo0553 (Listeria monocytogenes)
Experiment: crystal structure

Listeria monocytogenes c-di-AMP effector protein Lmo0553 (natural protein)
stoichiometry N: 2
